Measured values reported in paper PMC7082075.
Where “and” joins values, the source holds several entries; their conditions need not be identical. Identical values can stand only once.

What was measured:
[1] = molecular target: PX domain of SNX5 (SNX5^PX) (UniProt Q9Y5X3); assay: ITC; Fig 2B: CI-MPR (aa21–48) WT or alanine mutants titrated into SNX5^PX; 100 mM Hepes pH 7.5, 300 mM NaCl, 2 mM βME, 25°C; single values of triplicates
[2] = molecular target: PX domain of SNX5 (SNX5^PX) (UniProt Q9Y5X3); assay: ITC; Fig 1D: approximately 2–3 mM of peptides titrated into SNX5^PX (300 μM); 100 mM HEPES pH 7.5, 300 mM NaCl, 2 mM βME, 25°C; one set of sites model; single values of triplicates
[3] = molecular target: PX domain of SNX5 (SNX5^PX) (UniProt Q9Y5X3); assay: ITC; S4C Fig: approximately 0.5–1 mM of CI-MPR (aa21–48) WT or loop-deletion peptides titrated into SNX5^PX (50 μM); 100 mM HEPES pH 7.5, 300 mM NaCl, 2 mM βME, 25°C; one set of sites model; single values of triplicates
[4] = molecular target: PX domain of SNX32 (SNX32^PX); assay: ITC; S1B Fig: approximately 2–3 mM of CI-MPR (aa21–48) peptide titrated into approximately 100–300 μM of SNX5^PX, SNX6^PX or SNX32^PX; 100 mM HEPES pH 7.5, 300 mM NaCl, 2 mM βME, 25°C; one set of sites model; single values of triplicates
[5] = molecular target: PX domain of SNX5 (SNX5^PX) (UniProt Q9Y5X3); assay: as above
[6] = molecular target: PX domain of SNX6 (SNX6^PX) (UniProt Q9UNH7); assay: as above
Chain of PX domain of SNX6 (SNX6^PX) (Q9UNH7 26-173): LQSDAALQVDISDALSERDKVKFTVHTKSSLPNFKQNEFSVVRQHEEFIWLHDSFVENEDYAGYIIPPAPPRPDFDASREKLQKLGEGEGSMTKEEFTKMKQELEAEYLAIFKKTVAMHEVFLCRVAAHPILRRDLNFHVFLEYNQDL

SNX5^PX [7] = molecular target: SNX5^PX (UniProt Q9Y5X3); assay: ITC; loop length: approximately 0.5–1 mM peptide titrated into SNX5^PX (50 μM); 100 mM HEPES pH 7.5, 300 mM NaCl, 2 mM βME, 25°C (S4C Fig)
Chain of SNX5^PX (Q9Y5X3 20-180): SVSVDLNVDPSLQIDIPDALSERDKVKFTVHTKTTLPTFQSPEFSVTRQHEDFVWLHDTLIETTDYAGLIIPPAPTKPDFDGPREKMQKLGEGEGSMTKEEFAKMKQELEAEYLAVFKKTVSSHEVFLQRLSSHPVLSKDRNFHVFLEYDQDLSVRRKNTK

SNX32^PX = assay: ITC; approximately 2–3 mM CI-MPR (aa21–48) titrated into approximately 100–300 μM SNX5^PX, SNX6^PX or SNX32^PX; 100 mM HEPES pH 7.5, 300 mM NaCl, 2 mM βME, 25°C (S1B Fig)
SNX5^PX [8] = molecular target: SNX5^PX (UniProt Q9Y5X3); assay: as above
SNX6^PX = SNX6^PX (UniProt Q9UNH7); assay: as above
[9] = molecular target: SNX3-retromer complex (Retromer + SNX3) (UniProt Q96QK1); assay: ITC; approximately 2–3 mM peptide titrated into SNX5^PX (300 μM) or the SNX3-retromer complex (10 μM Retromer + 100 μM SNX3); 100 mM HEPES pH 7.5, 300 mM NaCl, 2 mM βME, 25°C; one set of sites model (Fig 1D, 1E, 2B)
SNX5^PX [10] = molecular target: SNX5^PX (UniProt Q9Y5X3); assay: as above

Chain of PX domain of SNX5 (SNX5^PX) (Q9Y5X3 25-172): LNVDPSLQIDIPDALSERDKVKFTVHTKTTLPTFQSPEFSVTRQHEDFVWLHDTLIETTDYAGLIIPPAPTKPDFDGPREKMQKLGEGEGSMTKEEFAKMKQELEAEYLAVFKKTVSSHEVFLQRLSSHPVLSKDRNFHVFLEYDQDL

Row | Substance | Kd [1] | Kd [2] | Kd [3] | Kd [4] | Kd [5] | Kd [6] | Kd (SNX5^PX [7]) [µM] | Kd (SNX32^PX) [µM] | Kd (SNX5^PX [8]) [µM] | Kd (SNX6^PX) [µM] | Kd [9] [µM] | Kd (SNX5^PX [10]) [µM]
1 | CI-MPR (aa21–48) peptide, wild type | 18 µM and 11 µM and 25 µM | 13 µM and 22 µM and 19 µM | 9 µM and 26 µM and 19 µM | 18 µM and 15 µM and 21 µM | 22 µM and 17 µM and 15 µM | 44 µM and 36 µM and 28 µM | – | – | – | – | – | –
2 | CI-MPR peptide (aa21–48) | – | – | – | – | – | – | 18 | 18 | 18 | 36 | > 400 | 18
